We go through 24 sequences from the DeepSol protein solubility set.

A short description of this data set: soluble on expression in E. coli; label from the status in PepcDB or PDB records.
On to “MTTTLSPDTARQIVPPEERYAAELAFLAAYDDGPRPPAWRLTPRAVVTFVMGSDGRALRLPEGAETPEGVPRRLTVEGKFVGDRSLVERCVVTLAGERGLLLVGEPGTAKSMLSELLSAAVCGTSGLVVQGTAGTTEDQLKYGWNYALLLAQGPSRTALVPSPVLTAMARGGIARVEEVTRCLPEVQDALVSLLSERRIAVPELSGTDDALAHAAPGFNLIATANLRDKGVSEMSAALKRRFNFETVGPIPDLDAETALVRSQARASVERAGAPFKVDEAVLEALVVAFRDLREGRSTEGWEVERPSTVMSTAEAVSVAGALGLAAAYFPGDRDVLGLLPGHLLGVVRKDDPADAARLRGYWDGPVRRRAEQGSATWRTLWDLRTVLEGLEHHHHHH”, for which the “soluble on expression in E. coli” value was “not soluble”.
The result for “MNTLMTQIHELQHVAHELLYLGADGSPIYTDSFRQLNTEVLQKSDALFALKGENPEEEARLCLALLMGYNATIYDYGDKESKKQVILDRSLLVLESLPSSLLKCQLLTYCYGEVFEEELAKEAHAIIDYWDNKTLSIDEQETVDMLKMIEENQYPNNYID” reads “not soluble”; that for “VPYKGYLIDLDGTIYQGKNRIPAGERFIKRLQERGIPYLLVTNNTTRTPEMVQSMLANQFHVETSIETIYTATMATVDYMNDMNRGKTAYVIGETGLKSAIAAAGYVEELENPAYVVVGLDSQVTYEMLAIATLAIQKGALFIGTNPDLNIPTERGLMPGAGALNALLEAATRVKPVFIGKPNAIIMNKSLEVLGIQRSEAVMVGDNYLTDIMAGIQNDIATILVTTGFTRPEEVPTLPIQPDHVLSSLDEWRL”, “soluble”; that for “MQITTVNVNGIRAAVKQRSDANRGMLPWLEQCGSDVVLLQEVRASEKDSLTALAPALDAGWHYVGAPAAAKGRAGVGILSRQPLRDVQVGLEGFVDSGRYIQATLSDPDTGHDVVVASLYLPSGSADTDKQDEKYRFLDVFGPFLEQAAQDNPHMVVGGDWNICHRMQDLKNWKTNRKKSGFLPDERAFMDSVFGVFPDSESQVSDAGQWAGAVDYTSQQRRTPANDPKWFDVARRLAPEDAAYTWWTYRGQAFDTNAGWRIDYQAATSAMLERATRCWVDKAAAYDLRWSDHSPLTVVYS”, “soluble”.
The result for “MGHHHHHHSHMGKKIKKEVEPPPKDVFDPLMIESKKAATVVLMLNSPEEEILAKACEAIYKFALKGEENKTTLLELGAVEPLTKLLTHEDKIVRRNATMIFGILASNNDVKKLLRELDVMNSVIAQLAPEEEVVIHEFASLCLANMSAEYTSKVQIFEHGGLEPLIRLLSSPDPDVKKNSMECIYNLVQDFQCRAKLQELNAIPPILDLLKSEYPVIQLLALKTLGVIANDKESRTMLRDNQGLDHLIKILETKELNDLHIEALAVIANCLEDMDTMVQIQQTGGLKKLLSFAENSTIPDIQKNAAKAITKAAYDPENRKLFHEQEVEKCLVALLGSENDGTKIAASQAISAMCENSGSKDFFNNQGIPQLIQLLKSDNEEVREAAALALANLTTCNPANANAAAEADGIDPLINLLSSKRDGAIANAATVLTNMAMQEPLRLNIQNHDIMHAIISPLRSANTVVQSKAALAVTATACDVEARTELRNSGGLEPLVELLRSKNDEVRKHASWAVMVCAGDELTANELCRLGALDILEEVNVSGTRKNKFSEAAYNKLLNNNLSLKYSQTGYLSSSNIINDGFYDYGRINPGTKLLPLKEL” reads “not soluble”.
In the case of “MLKKFFLPDEFVKNIFHITPEKLKERNVKGIITDLDNTLVEWDRPNATPRLIEWFEEMKEHGIKVTIVSNNNERRVKLFSEPLGIPFIYKARKPMGKAFNRAVRNMELKKEDCVVIGDQLLTDVLGGNRNGYHTILVVPVASSDGFITRFNRQVERRILSALKRKGHIQWEELEHHHHHH” it was “soluble”; in that of “MGSDKIHHHHHHMQTFLKGKRVGYWLSEKKIKKLNFQAFAELCRKRGMEVVQLNLSRPIEEQGPLDVIIHKLTDVILEADQNDSQSLELVHRFQEYIDAHPETIVLDPLPAIRTLLDRSKSYELIRKIEAYMEDDRICSPPFMELTSLCGDDTMRLLEKNGLTFPFICKTRVAHGTNSHEMAIVFNQEGLNAIQPPCVVQNFINHNAVLYKVFVVGESYTVVQRPSLKNFSAGTSDRESIFFNSHNVSKPESSSVLTELDKIEGVFERPSDEVIRELSRALRQALGVSLFGIDIIINNQTGQHAVIDINAFPGYEGVSEFFTDLLNHIATVLQGQSTAMAATGDVAL”, “soluble”; in that of “MSLIYFETERLIARDYLERDYLPFSQMNADEEVMKYFPARLTQVESNALLDRNQKELTSLGYGLFAIEVKSTNEFIGFTGLHEATFEAEFTPCIEIGWRLKRSAWNQGFATEAALGVLAFAKGITAINEIYSFTATCNKPSEKVMRKIHLTKIADFEHPALINGNPLKPHVLYKAEGHHHHHH”, “not soluble”.
In the case of “MKVYYPGREWPEEYKRVLEKMKEIIDPVTGDNILDSGVVAGLEVKDRTLKVWLRFESQAEYNILGGAAMAYSKIVGDIMEKFALVMFDNVYVYDLRNNIVGVFEKKK”, the “soluble on expression in E. coli” value is listed as “soluble”.
In the case of “YDTAYGGFGRGMKFPMHHALLLLARASMAGDRRALNMLTGTLDHMLFSGVHDLVEGGLHRYSVTRDWRLPHYEKMLYDQAWIIQVLAEAYAASGDRLYLDFAVSTLEFAMSWLWTGRGFASSVDADTGEGEGAYYT” it was “not soluble”; in that of “MKKIRLAVIGTGMAWERLHYPAIKELEDKYEIVALCNRTRKDAEEFAKKINLSMDRVYDDYNEMLKRQDIDAVDILVPIESNYTVSEAVAKAGKDFICEKPLAANREEAKKYLELSKKYNVRIMIAENYRYSDEYNKIRDIVNSGKIGDVVYFIKNNISCFPCEMTKDTFAATEWRQHPKFYGGAFLDAAVHDIAAMRHIFGAVECVQAFGKPQAEDFNPYVSVNAHILFKNGVIGYYTYYPSGIETQKPAVGFRIFGTKGEIYLEDKTCGIINVSYHDGTSELVNFIPERGFYNELLNYYNAINGTEQISVTPEMEYGDVKMVFDILDSVSFREIIYVDEEEPKRRLEIADDEAKIHPFLQ”, “not soluble”.
The result for “MVEADPRFQEAIRLFNAQEWYAAHDVLEEIWHETADPERRCLQGLLQVAVAQLHLQRDNQRGATILFGEALGRLRRPGTPDLGLDLPALCHCVQGRLVQLQQDGDPESCTVPVLSPSP” reads “not soluble”; that for “KTTVIPESLKILGWVEFTRLEPWGIKTPARIDTGANTSSMSARDINVFKRNGKTWVRFTFDFKKGTAERSIEIERPLVRMVKIKQHDGPSQERPVISMEICLADEIREAEFDLIDRRALNYPVLLGRKALAGYVVVDPARAYLTKAV”, “not soluble”; that for “MAASVEQREGTIQVQGQALFFREALPGSGQARFSVLLLHGIRFSSETWQNLGTLHRLAQAGYRAVAIDLPGLGHSKEAAAPAPIGELAPGSFLAAVVDALELGPPVVISPSLSGMYSLPFLTAPGSQLPGFVPVAPICTDKINAANYASVKTPALIVYGDQDPMGQTSFEHLKQLPNHRVLIMKGAGHPCYLDKPEEWHTGLLDFLQGLQ”, “soluble”.
The result for “MSLDKLNAISIFCKVIETQSFTLAAKQQNISVAMASKLVSQLEEHLKTRLLQRTTRKIMPTEAGMMYYQRCQGILLDLDEADSSITQLTSSLQGNLLISVPRDFGLLFIAPNLPTFMAKHPHLHIEVEFNDKKIDLLSEGYDLALRIGYMEDSSLVSRKIGTTTVHFAASPNYLETNGIPQTPDDLEHHNGLLYKNAMNQVNWVGSRINQTQRFKIQSKVVSNSGFALLNMAKAGLGIANLPKFILGRAFEKGELIEILPEYKQQKLEIHVVYPNRRHLPIKVTGISLNFEGHHHHHH” reads “not soluble”; that for “MVIRYDKAFIKDFKETDEGYLTITACPITRPGVFPYRRTDGGLSMEAKLPDELFSKATVLSANAKPMTDDHPTEPVTAANYNKYSKGMTHNDAHVLDNKLLVSFTITDAETIKKINDGKRELSIGFQADVSKETGVYNGMQYDSVQRNMQINHIAIVDEGRAGPEVAIRGDSVAFMIDTKDKQTGGNGMSKLIIDSKEFEVDSIVKAKFESLEAKLDAAEQRKANVEKLEGERDALKAQIDKLNKEIDEAKKKEVTADALDKRVQDRVDLINKAQKFLGDSVDFTGKSDREIKESVIAKTSPDFKGDGKSDDYIAAYFDSAVANVEKKGFTNPAAFNDAKDKDKEAAEDIEKQKNNRLNMNKKEDK”, “not soluble”.
Regarding “KVKSTFNKYSKVSSSKGMTGAMVAEQLLRSQGIYDVSIQRVSGSLTDNYNPRNKTLNLSDSVYNSTSVAAIGVAAHETGHAIQHAYGYGPLSFRTALFP”, the “soluble on expression in E. coli” value was “not soluble”.
In the case of “MSLSQLVLILGDQLSPSIAALDGVDKKQDTIVLCEVMAEASYVGHHKKKIAFIFSAMRHFAEELRGEGYRVRYTRIDDADNAGSFTGEVKRAIDDLTPSRICVTEPGEWRVRSEMDGFAGAFGIQVDIRSDRRFLSSHGEFRNWAAGRKSLTMEYFYREMRRKTGLLMNGEQPVGGRWNFDAENRQPARPDLLRPKHPVFAPDKITKEVIDTVERLFPDNFGKLENFGFAEGHHHHHH” it was “not soluble”; in that of “MKFINIVGTTASGKTTFARQLALKLNLTHIEMDDLFWLDGWQETPDDEFFLKLKNKMDIAKDGWVLDGNYSRTLHLKLDKLDTMIWLDYSFTLNFYRSVKRAISRIITKEPLWENSNNYESFKQSFLSKNSIILWMINHYAKNRKKYLNMMHDPQYRHIQFIRLTSPKQAKVFLDSL”, “not soluble”.
In the case of “MEIKTTTTLHRVVEETTKPLGATLVVETDISRKDVNGLARGHLVDGIPLCTPSFYADIAMQVGQYSMQRLRAGHPGAGAIDGLVDVSDMVVDKALVPHGKGPQLLRTTLTMEWPPKAAATTRSAKVKFATYFADGKLDTEHASCTVRFTSDAQLKSLRRSVSEYKTHIRQLHDGHAKGQFMRYNRKTGYKLMSSMARFNPDYMLLDYLVLNEAENEAASGVDFSLGSSEGTFAAHPAHVDAITQVAGFAMNANDNVDIEKQVYVNHGWDSFQIYQPLDNSKSYQVYTKMGQAKENDLVHGDVVVLDGEQIVAFFRGLTLRSVPRGALRVVLQTTVKKADRQLGFKTMPSPPPPTTTM” it was “soluble”.
In the case of “MRVDLERQQHQFLRRTYGPQHRLTTQQALTVMRVAAREQTRYSQRTTQCVAAHLLEQRAAVQQELQRARQLQSGNVDDALDSLTELKDTVDDVRATLVDSVSATCDLDLEVDDAVLEHHHHHH” it was “not soluble”.
For “MEDPLGRLEWIKFLSAFYDKEDKAENYFNQQVSKVMATENKVSSLKKPKVAFGMVDNGKVYIPAKNSYAAKMVDMAGGDYIFKDLNNKSGYITLEDFYSKSKDADVLIYSSSKEYTPSLKSMLSAAPILKTIKPVKNKKVWCFGKDYYQAIDKTDEIIEDLASIFHPESFKGLEHHHHHH”, the “soluble on expression in E. coli” value was “not soluble”.
In the case of “MGQRVDKEVTPRFVELGQVSAIRTEPEIAYRSNQGVTRQRQQTKVFKLVSTYDKVAVKNAIRAAYRQVFERDLEPYIINSEFTALESKLSNNEINVKEFIEGLGTSELYMKEFYAPYPNTKVIEMGTKHFLGRAPLNQKEIQQYNQILASQGLKAFIGAMVNGMEYLQTFGEDTVPYRRFPTLPAANFPNTERLYNKLTKQDKELEHHHHHH” it was “soluble”; in that of “PAWWGERAHPISEGGRGSAWFVEASFGNAVLRQYRRGGMIAMLNRDRYFWCGGHRTRSVLEFRLMRELISRGLPVPTPLAACYVRHGVQYRAAILMERLEGVSSLAMCVRGNSKEIHWEQIGRMISRFHREGLDHADLNAHNILLDQAGQCWLIDFDRGALRIPATKWREHNLARLLRSLLKIRGERSVDAVYRDFERLCRAY”, “not soluble”.
